3 molecules from paper doi:10.1101/2020.11.13.381533 (bioRxiv, 2020) can be followed below.

To fix the notation:
B1: C1A-B3 Fab (Fab, V domains shown)
VH: EVQLVESGGGLIQPGGSLRLSCAASGFTVSSNYMSWVRQAPGKGLEWVSVIYSGGTTYYADSVKGRFTISRDNSKNTVFLQMNSLRAEDTAVYYCARGDVSGYRYGLDYWGQGTLVTVS
VL: DIQLTQSPSSLSASVGDRVTITCRASQGISSYLAWYQQKPGKAPKLLIYAASTLQSGVPSRFSGSGSGTDFTLTISSLQPEDFATYYCQQLNSYPGTFGQGTKLEIK
B2: C1A-C2 Fab (Fab, V domains shown)
VH: EVQLVESGGGLIQPGGSLRLSCAVSGFTVSNNYMSWVRQAPGKGLEWVSVIYSGGTTYYADSVKGRFTISRDNSKNTLYLQMNSLRAEDTAVYYCARGDVSGYRYGLDYWGQGTLVTVS
VL: DIQLTQSPSSLSAFVGDRVTITCRASEGISSYLAWYQQKPGNAPKLLIYAASTLESGVPSRFSGSGSGTDFTLTISSLQPEDFATYYCQQLNSYPGTFGQGTKLEIK
B3: C1A-F10 Fab (Fab, V domains shown)
VH: EVQLVESGGGLIQPGGSLRLSCAASGFTVSSNYMSWVRQAPGKGLEWVSVIYSGGTTYYADSVKGRFTISRDNSKNTLYLQMNSLRAEDTAVYYCARGDVSGYRYGLDYWGQGTLVTVS
VL: DIQLTQSPSSLSASVGDRVTITCRASQGISSYLAWYQQKPGKAPKLLIYAASTLENGVPSRFSGSGSGTDFTLTISSLQPEDFATYYCQQLNSYPGTFGQGTKLEIK

This assay addresses SARS-CoV-2 S receptor-binding domain (RBD), construct for crystallography (SARS-CoV-2, GenBank QHD43416.1 …, UniProt P0DTC2). Description: crystal structure.
As to B1, the binding result is “binds”. Then B2, with “binds”; and B3, with “binds”.
